Data from patent US20240025993A1, “CD19 BINDING MOLECULES AND USES THEREOF” (NOVARTIS AG, priority 2020, published 2024).

B1: CD3hi TSP1C: TBM corresponding to CD3hi TSP1 but with a lysozyme binding arm in place of the CD19 binding arm; control antibody (antibody)
heavy: QVQLQQSGPGLVKPSQTLSLTCAISGDSVSSNSAAWSWIRQSPGRGLEWLGRIYYRSKWYNDYAVSVKSRITINPDTSKNQFSLQLNSVTPEDTAVYYCARLDHRYHEDTVYPGMDVWGQGTLVTVSSASTKGPSVFPLAPSSKSTSGGTAALGCLVKDYFPEPVTVSWNSGALTSGVHTFPAVLQSSGLYSLSSVVTVPSSSLGTQTYICNVNHKPSNTKVDKRVEPKSCGGGGSGGGGSEVQLVESGGGLVQPGGSLKLSCAASGFTFNTYAMNWVRQASGKGLEWVGRIRSKYNNYATYYADSVKDRFTISRDDSKSTLYLQMNSLKTEDTAVYYCVRHGNFGNSYVSWFAYWGQGTLVTVSSGGGGSGGGGSGGGGSGGGGSQAVVTQEPSLTVSPGGTVTLTCRSSTGAVTTSNYANWVQQKPGQAPRGLIGGTNKRAPWTPARFSGSLLGDKAALTLSGAQPEDEAEYFCALWYSNLWVFGGGTKLTVLGGGGSDKTHTCPPCPAPELLGGPSVFLFPPKPKDTLMISRTPEVTCVVVAVSHEDPEVKFNWYVDGVEVHNAKTKPREEQYASTYRVVSVLTVLHQDWLNGKEYKCKVSNKALAAPIEKTISKAKGQPREPQVCTLPPSREEMTKNQVSLSCAVKGFYPSDIAVEWESNGQPENNYKTTPPVLDSDGSFFLVSKLTVDKSRWQQGNVFSCSVMHEALHNHYTQKSLSLSPGK
light: DIELTQPPSVSVAPGQTARISCSGDNLPAYTVTWYQQKPGQAPVLVIYDDSDRPSGIPERFSGSNSGNTATLTISGTQAEDEADYYCASWDPSSGVVFGGGTKLTVLGQPKAAPSVTLFPPSSEELQANKATLVCLISDFYPGAVTVAWKADSSPVKAGVETTTPSKQSNNKYAASSYLSLTPEQWKSHRSYSCQVTHEGSTVEKTVAPTECS
chain: SQQIYGVVYGNVTFHVPSNVPLKEVLWKKQKDKVAELENSEFRAFSSFKNRVYLDTVSGSLTIYNLTSSDEDEYEMESPNITDTMKFFLYVLESGGGGSDKTHTCPPCPAPELLGGPSVFLFPPKPKDTLMISRTPEVTCVVVAVSHEDPEVKFNWYVDGVEVHNAKTKPREEQYASTYRVVSVLTVLHQDWLNGKEYKCKVSNKALAAPIEKTISKAKGQPREPQVYTLPPCREEMTKNQVSLWCLVKGFYPSDIAVEWESNGQPENNYKTTPPVLDSDGSFFLYSKLTVDKSRWQQGNVFSCSVMHEALHNHYTQKSLSLSPGK
B2: GADAPA-IgG1: anti-CD3 IgG1 with G237A/D265A/P329A (antibody)
heavy: EVQLVESGGGLVQPGGSLKLSCAASGFTFNTYAMNWVRQASGKGLEWVGRIRSKYNNYATYYADSVKDRFTISRDDSKSTLYLQMNSLKTEDTAVYYCVRHGNFGNSYVSWFAYWGQGTLVTVSSASTKGPSVFPLAPSSKSTSGGTAALGCLVKDYFPEPVTVSWNSGALTSGVHTFPAVLQSSGLYSLSSVVTVPSSSLGTQTYICNVNHKPSNTKVDKRVEPKSCDKTHTCPPCPAPELLGAPSVFLFPPKPKDTLMISRTPEVTCVVVAVSHEDPEVKFNWYVDGVEVHNAKTKPREEQYNSTYRVVSVLTVLHQDWLNGKEYKCKVSNKALAAPIEKTISKAKGQPREPQVYTLPPSRDELTKNQVSLTCLVKGFYPSDIAVEWESNGQPENNYKTTPPVLDSDGSFFLYSKLTVDKSRWQQGNVFSCSVMHEALHNHYTQKSLSLSPGK
light: QAVVTQEPSLTVSPGGTVTLTCRSSTGAVTTSNYANWVQQKPGQAPRGLIGGTNKRAPWTPARFSGSLLGDKAALTLSGAQPEDEAEYFCALWYSNLWVFGGGTKLTVLGQPKAAPSVTLFPPSSEELQANKATLVCLISDFYPGAVTVAWKADSSPVKAGVETTTPSKQSNNKYAASSYLSLTPEQWKSHRSYSCQVTHEGSTVEKTVAPTECS

How the values were obtained:
[1] = system: T cells co-cultured with OCI-LY-19, Karpas422 or Toledo target cells; assay: TBM and BBM mediated T cell proliferation (Example 20); assay type: cell-based, human; conditions: OCI-LY-19, Karpas422, Toledo co-culture; E:T 1:3, 96 hrs, 2.5 nM-0.0006 nM; H variants
Protocol: Briefly, OCI-LY-19, Karpas422, and Toledo target cells stably expressing firefly luciferase were plated in a 96 well plate in T Cell Media (TCM) (RPMI-1640, ThermoFisher Scientific, Cat #11875-085), 10% FBS (Seradigm, Cat #1500-500), 1% L-Glutamine (Thermo Fisher Scientific, Cat #25830-081), 1% Non Essential Amino Acids (Thermo Fisher Scientific, Cat #11140-050),1% Pen/Strep (Thermo Fisher Scientific, Cat #15070063), 1% HEPES (Thermo Fisher Scientific, Cat #15630080), Sodium Pyruvate (Thermo Fisher Scientific, Cat #11360-070), 0.1% Beta-mercaptoethanol (Thermo Fisher Scientific, Cat #21985-023)]. PBMCs previously isolated and cryopreserved from 2 Leukopak donors were thawed and Pan T cells were isolated (as described earlier). Isolated T cells were labelled with 5 μM Cell Trace Violet (CTV) (Thermo Fisher Scientific, Cat #C34557) following the manufacturer's protocol and were co-cultured with target cells at an E:T ratio of 1:3. A dilution series of CD3med TSP1, CD3hi TSP1, CD3hi BSP1, CD3hi TSP1C, and blinatumomab ranging from 2.5 nM-0.0006 nM was added to cells and the plates were incubated in a 5% CO2, 37° C. incubator for 96 hrs. […]

human FcγR1A = human FcγR1A (Homo sapiens, UniProt P12314); assay: SPR binding of Fc modified anti-CD3 IgG1 antibodies (Example 34); conditions: anti-CD3 IgG1 antibody immobilized
Sequence of human FcγR1A (P12314 16-374): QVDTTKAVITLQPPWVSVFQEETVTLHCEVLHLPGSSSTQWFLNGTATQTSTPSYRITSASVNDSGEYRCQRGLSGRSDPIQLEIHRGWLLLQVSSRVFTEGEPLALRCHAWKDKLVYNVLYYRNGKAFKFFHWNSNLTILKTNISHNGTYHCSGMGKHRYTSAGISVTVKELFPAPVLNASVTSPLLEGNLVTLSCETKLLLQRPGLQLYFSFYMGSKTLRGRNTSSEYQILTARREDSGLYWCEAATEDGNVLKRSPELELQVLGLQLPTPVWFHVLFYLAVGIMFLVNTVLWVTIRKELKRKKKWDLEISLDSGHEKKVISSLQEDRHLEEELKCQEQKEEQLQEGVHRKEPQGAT
Protocol: Surface plasmon resonance (SPR) experiments were performed to analyze the interaction of human activating receptors FcγR1A, FcγR3A (V158) and human C1q with IgG1 WT and antibody-Fc variants. Binding kinetics and their relative binding affinities were explored. The binding affinity is an important characteristic of an interaction between an antibody and an antigen. The equilibrium dissociation constant (KD) defines how strong the interaction is and therefore how much antibody-antigen complex is formed at equilibrium.
The knowledge of the antibody characteristics is not only essential during selection of the best therapeutic antibody candidate, but also important to understand the in vivo behavior and potentially predict cellular immune responses. […] Binding to human C1q was evaluated. […] SPR measurements were measured on a Biacore T200 (GE-Healthcare Life Sciences) controlled by Biacore T200 control software version 2.0.1. […]
The antibodies were covalently immobilized on a CM5 sensor chip whereas Fc gamma receptors or human C1q served as analytes in solution (FIG. 38). […] Zero concentration samples (blank runs) were measured for both methods to allow double-referencing during data evaluation.
Data were evaluated using the Biacore T200 evaluation software. […] In addition, the maximum response reached during the experiment was monitored. […]

[2] = Differential scanning calorimetry, melting temperature of Fc modified anti-CD3 antibodies (Example 35); assay type: physicochemical; conditions: DSC, 1 mg/ml in PBS pH 7.4, anti-CD3 IgG1 Fc variants
Protocol: Calorimetric measurements were carried out on a differential scanning micro calorimeter (Nano DSC, TA instruments). The cell volume was 0.5 ml and the heating rate was 1° C./min. All proteins were used at a concentration of 1 mg/m in PBS (pH 7.4). The molar heat capacity of each protein was estimated by comparison with duplicate samples containing identical buffer from which the protein had been omitted. The partial molar heat capacities and melting curves were analyzed using standard procedure. Thermograms were baseline corrected and concentration normalized.

[3] = Aggregation propensity (% HMW) by analytical SEC of IgG1 anti-CD3 antibody and Fc variants (Example 35); assay type: physicochemical; conditions: PBS pH 7.4, anti-CD3 antibodies
Protocol: Size exclusion chromatography measurements were performed to evaluate the aggregation propensity (% HMW) of IgG1 antibody and Fc modified derivatives. The produced and purified anti CD3 antibodies were applied to an analytical size exclusion chromatography column (SEC 200, GE Healthcare), equilibrated with PBS buffer pH 7.4.

[4] = system: Jurkat NFAT luciferized (JNL) cells with THP-1 cells; assay: Anti-CD3 NFAT signalling assay, JNL + THP-1 cells (Example 36); assay type: cell-based, human; conditions: THP-1 cells preincubated with IFNg (100 u/mL, 48 hours)
Protocol: Jurkat reporter gene assay (RGA) for the nuclear factor of activated T-cells (NFAT) pathway was performed using Jurkat NFAT luciferized (JNL) cells and THP-1 cells (ATCC, TIB202). THP-1 cells express FcγRI, FcγRII, and FcγRIII. Cells were co-incubated for 6 hours at 37° C., 5% CO2 at a 5:1 effector to tumor ratio with each sample at the various concentrations depicted. An equal volume of ONE-Glo™ reagent (Promega, E6110) was added to the culture volume. Plate was shaken for 2 minutes, then incubated for an additional 8 minutes protected from light. For JNL+ THP+IFNg experiment, THP-1 cells were pre-treated with 100 u/mL IFNg for 48 hours at 37° C., 5% CO2 before co-culture. IFNg stimulation increases FcγRI expression. Luciferase activity was quantitated on the EnVision plate reader (PerkinElmer). Data was analyzed and fit to a 5 parameter-logistic curve using GraphPad Prism.

Row | Molecule | T cell proliferation (% proliferated CD3+ T cells) [1] | Maximum response at 100 nM hFcgammaRIA (RU) (human FcγR1A) | Melting temperature (Tm) of CH2 domain [2] [°C] | (%) higher molecular weight [3] [%] | NFAT activity (T-cell activation) [4]
1 | B1 | did not induce any T cell proliferation | – | – | – | –
2 | B2 | – | 16 | 65 | 8.0 | some activity remaining
